Molecular target: recombinant human protective protein/cathepsin A (rhPPCA), 54-kDa precursor form (human)
Experiment: SEC

recombinant human protective protein/cathepsin A (rhPPCA), 54-kDa precursor form (enzyme)
stoichiometry N: 2
